Test results taken from publication PMC5432305, “Fungal lectin MpL enables entry of protein drugs into cancer cells and their subcellular targeting” (Oncotarget, 2017).

B1: Recombinant cystatin C (CysC) (natural protein, human, UniProt P01034 27-146, looked up)
chain: SSPGKPPRLVGGPMDASVEEEGVRRALDFAVGEYNKASNDMYHSRALQVVRARKQIVAGVNYFLDVELGRTTCTKTQPNLDNCPFHDQPHLKRKAFCSFQIYAVPWQGTMTLSKSTCQDA
notes: Human cystatin C without its signal peptide of 26 amino acids; It was cloned through NdeI and BamHI into pET11a, so an initiator methionine is likely; also called unlinked CysC
B2: Recombinant clitocypin (Clt) (natural protein, UniProt Q3Y9I6 1-152, looked up)
chain: MASLEDGTYRLRAVTTSNPDPGVGGEYATVEGARQPVKAEPSTPPFFERQIWQVTRNSDGQSTIKYQGLNAPFEYGFSYDQLEQNAPVIAGDPKEYILQLVPSTTDVYIIRAPIQRVGVDVEVGVQGNNLVYKFFPVDGSGGDRPAWRFTRE
notes: also called rClt; unlinked Clt; source: E. coli, purified as described [19]
B3: CysC-MpL fusion protein (cystatin C, (GGGGS)3 linker, MpL) (other)
chain: SSPGKPPRLVGGPMDASVEEEGVRRALDFAVGEYNKASNDMYHSRALQVVRARKQIVAGVNYFLDVELGRTTCTKTQPNLDNCPFHDQPHLKRKAFCSFQIYAVPWQGTMTLSKSTCQDAGGGGSGGGGSGGGGSMSTQVSSGQTYKITNVKAGTVIDLSGEDNKSIIGYPYHSGKNQQWTFNWTGKAWTLRSASSGSYLGIEGTPADGTRLVAVNDPFEWHIWRDEANENAFRIFVPFTNYNLDLSGYGDTTPGTPVQLWWTWEGLHQTWTIDRP
modifications: Cystatin C without its 26-residue signal peptide (stated for unlinked CysC, assumed for the fusion). (GGGGS)3 linker kept because it joins the two domains. Vector start Met not added; MpL Met1 may be absent in the fusion. Dimeric forms were observed; copies given per chain.
B4: Clt-MpL fusion protein (clitocypin, (GGGGS)3 linker, MpL) (other)
chain: MASLEDGTYRLRAVTTSNPDPGVGGEYATVEGARQPVKAEPSTPPFFERQIWQVTRNSDGQSTIKYQGLNAPFEYGFSYDQLEQNAPVIAGDPKEYILQLVPSTTDVYIIRAPIQRVGVDVEVGVQGNNLVYKFFPVDGSGGDRPAWRFTREGGGGSGGGGSGGGGSMSTQVSSGQTYKITNVKAGTVIDLSGEDNKSIIGYPYHSGKNQQWTFNWTGKAWTLRSASSGSYLGIEGTPADGTRLVAVNDPFEWHIWRDEANENAFRIFVPFTNYNLDLSGYGDTTPGTPVQLWWTWEGLHQTWTIDRP
modifications: Clitocypin species taken from the candidate for the printed accession Q3Y9I6; MpL species is printed. (GGGGS)3 linker kept because it joins the two domains. MpL Met1 may be absent in the fusion. Dimeric forms were observed; copies given per chain.

Assays:
Papain [1] = biological target: T1, Papain (UniProt P00784 134-345)
T1 chain: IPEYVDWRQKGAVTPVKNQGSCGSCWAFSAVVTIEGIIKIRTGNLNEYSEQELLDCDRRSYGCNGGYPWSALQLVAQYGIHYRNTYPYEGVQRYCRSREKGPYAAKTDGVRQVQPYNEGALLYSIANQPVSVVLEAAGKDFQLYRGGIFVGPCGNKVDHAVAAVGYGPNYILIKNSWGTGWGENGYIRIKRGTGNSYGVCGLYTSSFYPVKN

Papain [2] = biological target: T2, Papain (UniProt P00784 134-345); assay: enzyme inhibition kinetics (Ki, Henderson equation for tight binding competitive inhibitors); papain 2.6 nM, different concentrations of inhibitor proteins, 0.1 M MES, 5 mM DTT, 0.1 mM Z-Phe-Arg-AMC, pH 6.5, 25°C, fluorescence 370/460 nm; details: both partners purified
T2 construct: also called cysteine peptidase papain; cysteine protease papain; source: bought: Sigma
T2 sequence (looked up): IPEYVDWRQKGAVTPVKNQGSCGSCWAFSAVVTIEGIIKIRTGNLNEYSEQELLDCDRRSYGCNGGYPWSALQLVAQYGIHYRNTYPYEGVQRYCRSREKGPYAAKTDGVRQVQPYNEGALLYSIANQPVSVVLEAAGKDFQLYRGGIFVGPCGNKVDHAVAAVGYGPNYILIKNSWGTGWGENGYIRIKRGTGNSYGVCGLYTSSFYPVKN

Binder	Ki (Papain [1]) [nM]	binding result (Papain [2])
B1	85.5	binds
B2	60.8	binds
B3	41	–
B4	161	–
